Data on 94 variants can be found in the supplement of paper PMC10567573.

B1: PTPN9 (parent)
chain: IDFLRVVRNQQSLAVSNMGARSKG
B2: CDC25A (parent)
chain: QLIDPDENKENEAFEFKKPVRPVS
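Note: lentivirally expressed fusions sorted by FACS into six bins by GFP to DsRed ratio, PSI derived from sequencing read proportions per bin multiplied by bin number.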

Variants of B1 are the subject of one data set. Nature of the data set: protein stability index of a GFP-peptide fusion (GPS, HEK-293T) (PSI 1-6); higher = more stable. The settings on record: c terminus: a fixed tail appended.
For PDFLRVVRNQQSLAVSNMGARSKG, the protein stability index amounted to 4.25.

For the variant EDFLRVVRNQQSLAVSNMGARSKG, the protein stability index was 4.

On to WDFLRVVRNQQSLAVSNMGARSKG, for which the protein stability index came to 2.88.

For MDFLRVVRNQQSLAVSNMGARSKG, the protein stability index was determined as 2.96.

As to DDFLRVVRNQQSLAVSNMGARSKG, the protein stability index was 4.38.

On to RDFLRVVRNQQSLAVSNMGARSKG, for which the protein stability index was determined as 3.35.

Turning to ADFLRVVRNQQSLAVSNMGARSKG, the protein stability index was determined as 3.18.

As for GDFLRVVRNQQSLAVSNMGARSKG, the protein stability index was 3.72.

For the variant FDFLRVVRNQQSLAVSNMGARSKG, the protein stability index is 2.75.

With SDFLRVVRNQQSLAVSNMGARSKG, the protein stability index came to 3.1.

As for TDFLRVVRNQQSLAVSNMGARSKG, the protein stability index was determined as 3.43.

Take HDFLRVVRNQQSLAVSNMGARSKG: the protein stability index was determined as 3.96.

For KDFLRVVRNQQSLAVSNMGARSKG, the protein stability index worked out at 3.59.

Turning to LDFLRVVRNQQSLAVSNMGARSKG, the protein stability index amounted to 2.95.

Turning to QDFLRVVRNQQSLAVSNMGARSKG, the protein stability index amounted to 4.35.

As for NDFLRVVRNQQSLAVSNMGARSKG, the protein stability index amounted to 3.83.

VDFLRVVRNQQSLAVSNMGARSKG: the protein stability index worked out at 3.03.

Turning to YDFLRVVRNQQSLAVSNMGARSKG, the protein stability index stood at 3.47.

Take CDFLRVVRNQQSLAVSNMGARSKG: the protein stability index came to 2.8.

On to IQFLRVVRNQQSLAVSNMGARSKG, for which the protein stability index amounted to 1.88.

As for IHFLRVVRNQQSLAVSNMGARSKG, the protein stability index is 2.41.

As for INFLRVVRNQQSLAVSNMGARSKG, the protein stability index came to 2.06.

Take ICFLRVVRNQQSLAVSNMGARSKG: the protein stability index turned out to be 2.06.

ISFLRVVRNQQSLAVSNMGARSKG: the protein stability index came to 2.55.

IMFLRVVRNQQSLAVSNMGARSKG: the protein stability index amounted to 1.38.

For IGFLRVVRNQQSLAVSNMGARSKG, the protein stability index was determined as 2.64.

Turning to IAFLRVVRNQQSLAVSNMGARSKG, the protein stability index was found to be 1.82.

For the variant IKFLRVVRNQQSLAVSNMGARSKG, the protein stability index is 1.42.

Regarding IEFLRVVRNQQSLAVSNMGARSKG, the protein stability index was found to be 2.54.

Consider IPFLRVVRNQQSLAVSNMGARSKG, for which the protein stability index was found to be 2.54.

Consider IIFLRVVRNQQSLAVSNMGARSKG, for which the protein stability index was 2.35.

Regarding ILFLRVVRNQQSLAVSNMGARSKG, the protein stability index is 1.53.

Turning to IFFLRVVRNQQSLAVSNMGARSKG, the protein stability index was determined as 2.33.

On to IRFLRVVRNQQSLAVSNMGARSKG, for which the protein stability index stood at 2.03.

The next data set covers variants of B2. Described as above. The settings on record: c terminus: a fixed tail appended.
Consider QLIDPDENKENEAFEFKKPVRPVP, for which the protein stability index is 4.33.

Take QLIDPDENKENEAFEFKKPVRPVH: the protein stability index amounted to 2.87.

In the case of QLIDPDENKENEAFEFKKPVRPVW, the protein stability index came to 3.3.

For QLIDPDENKENEAFEFKKPVRPVF, the protein stability index is 3.88.

QLIDPDENKENEAFEFKKPVRPVC: the protein stability index worked out at 3.5.

Turning to QLIDPDENKENEAFEFKKPVRPVM, the protein stability index is 3.49.

For the variant QLIDPDENKENEAFEFKKPVRPVA, the protein stability index is 4.16.

Take QLIDPDENKENEAFEFKKPVRPVQ: the protein stability index turned out to be 4.25.

With QLIDPDENKENEAFEFKKPVRPVR, the protein stability index worked out at 3.58.

For the variant QLIDPDENKENEAFEFKKPVRPVY, the protein stability index came out at 3.73.

Take QLIDPDENKENEAFEFKKPVRPVG: the protein stability index was 3.54.

With QLIDPDENKENEAFEFKKPVRPVK, the protein stability index came out at 4.72.

Take QLIDPDENKENEAFEFKKPVRPVL: the protein stability index turned out to be 3.21.

QLIDPDENKENEAFEFKKPVRPVD: the protein stability index came out at 5.24.

In the case of QLIDPDENKENEAFEFKKPVRPVE, the protein stability index is 4.67.

As for QLIDPDENKENEAFEFKKPVRPVN, the protein stability index was determined as 3.34.

Take QLIDPDENKENEAFEFKKPVRPVV: the protein stability index stood at 3.76.

Regarding QLIDPDENKENEAFEFKKPVRVVS, the protein stability index amounted to 4.05.

QLIDPDENKENEAFEFKKPVRNVS: the protein stability index was 4.14.

As for QLIDPDENKENEAFEFKKPVRMVS, the protein stability index was determined as 4.08.

Consider QLIDPDENKENEAFEFKKPVRKVS, for which the protein stability index worked out at 3.25.

With QLIDPDENKENEAFEFKKPVRLVS, the protein stability index came to 3.45.

In the case of QLIDPDENKENEAFEFKKPVRRVS, the protein stability index is 4.23.

Regarding QLIDPDENKENEAFEFKKPVRHVS, the protein stability index is 3.38.

With QLIDPDENKENEAFEFKKPVRTVS, the protein stability index was determined as 2.8.

For QLIDPDENKENEAFEFKKPVRGVS, the protein stability index was determined as 3.66.

In the case of QLIDPDENKENEAFEFKKPVRDVS, the protein stability index worked out at 4.45.

As for QLIDPDENKENEAFEFKKPVRYVS, the protein stability index came out at 4.71.

Take QLIDPDENKENEAFEFKKPVRCVS: the protein stability index is 4.98.

In the case of QLIDPDENKENEAFEFKKPVRSVS, the protein stability index stood at 4.05.

Consider QLIDPDENKENEAFEFKKPVRIVS, for which the protein stability index came to 4.31.

With QLIDPDENKENEAFEFKKPVRAVS, the protein stability index came to 3.23.

Regarding QLIDPDENKENEAFEFKKPVRFVS, the protein stability index was 3.69.

For QLIDPDENKENEAFEFSKPVRPVS, the protein stability index was 3.48.

Consider QLIDPDENKENEAFEFTKPVRPVS, for which the protein stability index stood at 3.58.

QLIDPDENKENEAFEFNKPVRPVS: the protein stability index was found to be 3.15.

With QLIDPDENKENEAFEFYKPVRPVS, the protein stability index is 3.7.

As to QLIDPDENKENEAFEFIKPVRPVS, the protein stability index is 3.54.

On to QLIDPDENKENEAFEFGKPVRPVS, for which the protein stability index was found to be 3.91.

Take QLIDPDENKENEAFEFMKPVRPVS: the protein stability index came to 3.03.

In the case of QLIDPDENKENEAFEFVKPVRPVS, the protein stability index was 3.98.

In the case of QLIDPDENKENEAFEFWKPVRPVS, the protein stability index stood at 3.43.

With QLIDPDENKENEAFEFQKPVRPVS, the protein stability index stood at 4.03.

QLIDPDENKENEAFEFCKPVRPVS: the protein stability index stood at 2.78.

Turning to QLIDPDENKENEAFEFAKPVRPVS, the protein stability index came to 4.44.

On to QLIDPDENKENEAFEFFKPVRPVS, for which the protein stability index came out at 3.88.

For QLIDPDENKENEAFEFLKPVRPVS, the protein stability index amounted to 3.36.

In the case of QLIDPDENKENEAFEFRKPVRPVS, the protein stability index came to 3.78.

As to QLIDPDENKENEAFEFEKPVRPVS, the protein stability index came to 3.46.

As to QLIDPDENKENEAFEFHKPVRPVS, the protein stability index turned out to be 3.84.

For QLIDPDENKENEAFEFPKPVRPVS, the protein stability index turned out to be 4.27.

As to QLIDPDENKENEAFEFKKNVRPVS, the protein stability index came to 4.43.

Turning to QLIDPDENKENEAFEFKKAVRPVS, the protein stability index worked out at 4.44.

Regarding QLIDPDENKENEAFEFKKHVRPVS, the protein stability index is 3.95.

On to QLIDPDENKENEAFEFKKYVRPVS, for which the protein stability index worked out at 3.07.

On to QLIDPDENKENEAFEFKKSVRPVS, for which the protein stability index turned out to be 4.09.

As to QLIDPDENKENEAFEFKKWVRPVS, the protein stability index was found to be 3.87.

QLIDPDENKENEAFEFKKMVRPVS: the protein stability index is 3.74.

Regarding QLIDPDENKENEAFEFKKLVRPVS, the protein stability index was 3.52.

Regarding QLIDPDENKENEAFEFKKFVRPVS, the protein stability index worked out at 4.44.
